Substitutions are numbered along the chain they refer to.
B1: anti-Mac-1 antibody clone m2396 (antibody, human IgG4, V domains shown)
VH: QVQLQESGPGLVKPSETLSLTCTVSGFSLTSNSISWVRQPPGKGLEWMGAIWSGGGTDYNPSLKSRLTISRDTSKSQVFLKMSSLTAADTAIYFCTRGGYPYYFDYWGQGVLVTVSS
VL: DIVMTQSPDSLAVSLGERVTINCKSSQSLLYSENQENYLAWYQQKPGQSPKLLIYWASTRQSGVPDRFSGSGSGTDFTLTISSVQAEDLAIYYCQQYYDTPLTFGGGTKLEIK
B2: anti-Mac-1 antibody clone DF3M-5 (antibody, human IgG4, V domains shown)
VH: EVQLVESGGGLVQPGGSLRLSCAASGFTFGTYDMHWVRQAPGKGLEWVSMISPSGGDTYYADSVKGRFTISRDNSKNTLYLQMNSLRAEDTAVYYCARDSSGDWYAMAYWGQGTLVTVSS
VL: DIQMTQSPSSLSASVGDRVTITCRASQSIRRYLAWYQQKPGKAPKLLIYGASNLQSGVPSRFSGSGSGTDFTLTISSLQPEDFATYYCQHSSDTPLTFGQGTKVEIK
B3: anti-Mac-1 antibody clone DF4-25 (antibody, human IgG4, V domains shown)
VH: EVQLVESGGGLVQPGGSLRLSCAASGFTFKDYWLSWVRQAPGKGLEWVSIINYGGSETYYADSVKGRFTISRDNSKNTLYLQMNSLRAEDTAVYYCARTQTSYVMDYWGQGTLVTVSS
VL: DIQMTQSPSSLSASVGDRVTITCRASQSVRSGLNWYQQKPGKAPKLLIYAASSLQSGVPRRFSGSGSGTDFTLTISSLQPEDFATYYCMQSHSWPLTFGQGTKVEIK
B4: anti-Mac-1 antibody clone 24F09 (antibody, human IgG4, V domains shown)
VH: EVQLVESGGGLVQPGGSLRLSCAASGFTFSSAWMSWVRQAPGKGLEWVSTIYWSGSEINYADSVKGRFTISRDNSKNTLYLQMNSLRAEDTAVYYCARSFASGESAMDVWGQGTLVTVSS
VL: B2 VL with R30S, R31N, G50D, H90Q, S91Y, S92Y, D93S, T94S, L96P
notes: also called 24F9

The binders below were run against T1, mouse Mac-1 (mouse, UniProt P05555 17-1153; P11835 24-771) (assay: flow cytometry, Raw 264.7 cells).
T1 construct: whole, on cells; also called Raw264.7
T1 sequence (P05555 17-1153, chain 1 of 2): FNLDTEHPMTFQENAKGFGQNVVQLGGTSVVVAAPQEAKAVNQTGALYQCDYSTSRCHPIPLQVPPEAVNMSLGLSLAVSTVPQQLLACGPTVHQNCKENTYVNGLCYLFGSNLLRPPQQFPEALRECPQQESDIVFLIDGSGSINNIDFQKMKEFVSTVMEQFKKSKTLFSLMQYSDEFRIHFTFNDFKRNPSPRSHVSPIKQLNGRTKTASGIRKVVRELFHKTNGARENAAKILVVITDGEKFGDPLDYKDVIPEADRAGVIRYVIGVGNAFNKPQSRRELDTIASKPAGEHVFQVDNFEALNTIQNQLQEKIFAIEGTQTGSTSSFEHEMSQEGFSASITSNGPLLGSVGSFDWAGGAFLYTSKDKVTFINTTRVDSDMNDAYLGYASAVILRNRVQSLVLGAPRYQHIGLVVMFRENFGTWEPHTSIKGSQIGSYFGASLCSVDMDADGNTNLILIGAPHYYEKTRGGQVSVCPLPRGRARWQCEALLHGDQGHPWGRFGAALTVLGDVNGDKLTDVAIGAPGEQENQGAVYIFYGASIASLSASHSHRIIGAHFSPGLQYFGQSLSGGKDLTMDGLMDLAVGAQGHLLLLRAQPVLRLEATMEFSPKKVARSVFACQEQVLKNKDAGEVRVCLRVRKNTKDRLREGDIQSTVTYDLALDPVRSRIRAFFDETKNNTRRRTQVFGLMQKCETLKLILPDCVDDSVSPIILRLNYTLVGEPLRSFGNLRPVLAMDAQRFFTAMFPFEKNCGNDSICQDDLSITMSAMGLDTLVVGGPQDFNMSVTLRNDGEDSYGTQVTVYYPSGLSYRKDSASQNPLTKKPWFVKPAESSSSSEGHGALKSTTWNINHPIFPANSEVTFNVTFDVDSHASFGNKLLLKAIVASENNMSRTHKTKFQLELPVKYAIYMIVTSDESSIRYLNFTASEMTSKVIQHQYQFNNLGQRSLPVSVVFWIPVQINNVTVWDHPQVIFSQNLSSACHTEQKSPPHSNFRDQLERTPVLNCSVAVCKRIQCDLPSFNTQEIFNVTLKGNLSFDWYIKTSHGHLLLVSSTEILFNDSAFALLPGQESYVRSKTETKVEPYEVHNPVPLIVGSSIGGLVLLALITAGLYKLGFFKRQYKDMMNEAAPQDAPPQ
T1 sequence (P11835 24-771, chain 2 of 2): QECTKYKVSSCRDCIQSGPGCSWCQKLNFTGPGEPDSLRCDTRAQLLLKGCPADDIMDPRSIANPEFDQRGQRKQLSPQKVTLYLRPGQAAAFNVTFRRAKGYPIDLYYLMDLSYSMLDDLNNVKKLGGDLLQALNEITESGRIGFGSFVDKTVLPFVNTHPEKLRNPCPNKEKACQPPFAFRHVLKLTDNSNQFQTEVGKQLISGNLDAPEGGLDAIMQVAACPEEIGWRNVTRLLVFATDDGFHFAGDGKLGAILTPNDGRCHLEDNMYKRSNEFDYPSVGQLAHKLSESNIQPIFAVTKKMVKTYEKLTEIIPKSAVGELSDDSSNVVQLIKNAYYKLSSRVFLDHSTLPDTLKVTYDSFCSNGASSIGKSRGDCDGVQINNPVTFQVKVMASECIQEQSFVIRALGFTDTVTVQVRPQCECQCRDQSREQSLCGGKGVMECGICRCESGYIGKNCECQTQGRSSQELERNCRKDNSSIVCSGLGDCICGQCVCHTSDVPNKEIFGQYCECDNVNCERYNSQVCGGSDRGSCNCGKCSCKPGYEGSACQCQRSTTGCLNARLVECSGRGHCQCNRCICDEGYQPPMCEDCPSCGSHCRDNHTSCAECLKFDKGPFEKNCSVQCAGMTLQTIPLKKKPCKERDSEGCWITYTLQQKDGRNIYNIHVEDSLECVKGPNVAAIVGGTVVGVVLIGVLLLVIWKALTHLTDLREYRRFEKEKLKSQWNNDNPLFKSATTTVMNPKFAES

Binder | binding result
B1 | binds
B2 | binds

What follows are binders tested against T2, human Mac-1 (integrin αMβ2, CD11b/CD18) (human, UniProt P11215 17-1152; P05107 23-769) (assay: flow cytometry, HEK293/Mac-1 cells (clone 1-4), PBS (Mock)).
Method: (§1) The HEK293/Mac-1 cells (clone1-4) were counted and washed twice with staining buffer (PBS containing 1% FBS, and 0.1% sodium azide). Cells were adjusted at a concentration of 1×10⁵ cells/ml in staining buffer and treated with/without 0.25 mM MnCl₂ (Sigma). Cells were treated with anti-Mac-1 antibodies and fluorescent conjugated anti-human IgG4 antibodies and incubated for 15 mins. After washing with the staining buffer, the cells were analyzed by flow cytometry. In some examples, these cells were treated with the antibodies (ICRF44, KIM127, m24, or isotype control) in the presence or absence 10 μg/ml anti-Mac-1 antibodies. The cells were then incubated at 37° C. for 30 min. After washing with the staining buffer, the cells were analyzed by flow cytometry.
(§2) TABLE II The anti-Mac-1 antibodies selectively bind to different statuses of human Mac-1. HEK293/Mac-1 cells (clone1-4) were incubated in PBS (Mock), or PBS/MnCl₂ (Mn²⁺). Binding of isotype control IgG, the CD11b specific mAb (ICRF44), the CD11b activation-sensing mAb (CBRM1/5), or the screened anti-Mac-1 antibody was detected using flow cytometry.

Binder | Mock MFI [MFI]
B3 | 35700
B1 | 108000
B2 | 34600
B4 | 39800

The binders below were run against T2, human Mac-1 (integrin αMβ2, CD11b/CD18) (assay: flow cytometry, HEK293/Mac-1 cells (clone 1-4), PBS/MnCl2 (Mn2+)).
Method: as §1, §2

Binder | Mn^2+ MFI [MFI]
B3 | 30500
B1 | 107000
B2 | 52500
B4 | 33900

What follows are binders tested against T2, human Mac-1 (integrin αMβ2, CD11b/CD18) (assay: flow cytometry, HEK293/Mac-1 cells; MFI in PBS over MFI in PBS/MnCl2).
Method: as §1, §2

Binder | Mock/Mn^2+ Ratio
B3 | 1.17
B1 | 1.01
B2 | 0.66
B4 | 1.17

What follows are binders tested against T2, human Mac-1 (integrin αMβ2, CD11b/CD18) (assay: flow cytometry, HEK293/Mac-1 cells, PBS (Mock), 10 µg/ml of this antibody; binding of reporter mAb m24 read).
Method: as §1
(§3) TABLE III The anti-Mac-1 antibodies can serve as agonist to enhance the conformational change of Mac-1. HEK293/Mac-1 cells (clone1-4) were incubated with 10 μg/ml anti-Mac-1 antibodies under the PBS (Mock) condition. Binding of KIM127 or m24 was detected using flow cytometry.

Binder | m24 (Expression relative to IgG4)
B3 | 24 relative to IgG4
B1 | 0.88 relative to IgG4
B2 | 28.4 relative to IgG4
B4 | 19.1 relative to IgG4

Each binder was assayed against T2, human Mac-1 (integrin αMβ2, CD11b/CD18) (assay: flow cytometry, HEK293/Mac-1 cells, PBS (Mock), 10 µg/ml of this antibody; binding of reporter mAb KIM127 read).
Method: as §1, §3

Binder | KIM127 (Expression relative to IgG4)
B3 | 2.23 relative to IgG4
B1 | 1.09 relative to IgG4
B2 | 2.49 relative to IgG4
B4 | 2.05 relative to IgG4

Each binder was assayed against T2, human Mac-1 (integrin αMβ2, CD11b/CD18) (assay: flow cytometry, HEK293/Mac-1 cells, PBS/MnCl2 (Mn2+), 10 µg/ml of this antibody; binding of reporter mAb m24 read).
Method: as §1
(§4) TABLE IV The anti-Mac-1 antibody can serve as an antagonist to reduce the conformational change of Mac-1. HEK293/Mac-1 cells (clone1-4) were incubated with 10 μg/ml anti-Mac-1 antibodies under the PBS/MnCl₂ (Mn²⁺) condition. Binding of KIM127 or m24 was detected using flow cytometry.

Binder | m24 (Expression relative to IgG4)
B3 | 4.34 relative to IgG4
B1 | 0.83 relative to IgG4
B2 | 4.4 relative to IgG4
B4 | 4.01 relative to IgG4

The binders below were run against T2, human Mac-1 (integrin αMβ2, CD11b/CD18) (assay: flow cytometry, HEK293/Mac-1 cells, PBS/MnCl2 (Mn2+), 10 µg/ml of this antibody; binding of reporter mAb KIM127 read).
Method: as §1, §4

Binder | KIM127 (Expression relative to IgG4)
B3 | 1.75 relative to IgG4
B1 | 0.81 relative to IgG4
B2 | 1.68 relative to IgG4
B4 | 1.71 relative to IgG4

Reference: patent publication US20240084017A1 (ASCENDO BIOTECHNOLOGY, published 2024)
